Experimental data taken from publication PMC13232553.

Target: mPiezo1-ALFA_(2420)-HRV3C-GFP (mouse (printed only as mPiezo1)) (UniProt E2JF22)
Test: SEC; Superose-6 (10/300 GL) in 150 mM NaCl, 20 mM tris pH 8, 0.025% C12E10, 4°C
Settings: remark: other sources report otherwise

stoichiometry N: 3
Substance: mPiezo1-ALFA_(2420)-HRV3C-GFP, E2JF22 1-2547
